Laboratory results published in patent US11655492B2, “Activated formylglycine-generating enzymes and methods of producing and using the same” (R.P. Scherer Technologies, LLC, priority 2015, dated 2023).
Several values for one entry are separate records, joined by “and”; a condition that tells them apart may be missing. Equal entries are not always repeated. Where two headings read alike, the source gives them in different places.

Columns and labels:
Sc-FGE = Sc-FGE (Streptomyces coelicolor, UniProt Q9F3C7); type: biochemical, S. coelicolor
recombinant human FGE = biological target: T1, recombinant human FGE (Homo sapiens, UniProt Q8NBK3); experiment: In vivo conversion in CHO cells expressing recombinant human FGE and αHER2 mAb, additives in culture medium
T1 sequence (Q8NBK3 34-374): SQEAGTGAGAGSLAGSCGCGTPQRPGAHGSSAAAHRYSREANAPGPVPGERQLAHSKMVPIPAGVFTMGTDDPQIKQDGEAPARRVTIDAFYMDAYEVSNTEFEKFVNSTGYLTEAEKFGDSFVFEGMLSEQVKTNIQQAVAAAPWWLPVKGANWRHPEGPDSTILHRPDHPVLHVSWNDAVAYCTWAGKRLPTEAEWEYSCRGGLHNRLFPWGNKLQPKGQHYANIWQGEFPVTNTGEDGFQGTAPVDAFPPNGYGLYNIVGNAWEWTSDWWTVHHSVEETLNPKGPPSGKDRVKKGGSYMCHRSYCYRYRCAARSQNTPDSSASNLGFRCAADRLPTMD
Experimental: The effect on conversion in the presence of Cu^2+ (copper sulfate) in the cell culture medium of mammalian cells expressing FGEs and proteins that include FGE recognition sites was investigated. CHO cells expressing a recombinant human FGE and recombinant αHER2 mAb (heavy and light chain in same cell) containing the FGE recognition sequence LCTPSR (SEQ ID NO:4) were cultured FortiCHO media with the CellBoost4 feed, Efficient Feed C, and Efficient Feed C, supplemented with glucose and/or galactose.
The experimental conditions were the same as those used in the Cu^2+ experiments above.

CT-1.1 tagged Her2 = experiment: 293 Expi transient co-transfection of FGE form and CT tagged antibody, conversion by mass-spectrometry; type: cell-based; conditions: Expi 293F, FGE form co-transfected with Her2 CT1.1, harvest day 5-6
Experimental: A 293 Expi transient co-transfection system (Life Technologies) was used for producing antibodies having a formylglycine residue at a selected site. The system produced high antibody titers (100-500 mg/L) with variable (10-95%) conversion. […] Expi 293F that were treated with or without 50 μM copper sulfate prior to transfection were transiently co-transfected in three independent experiments with expression plasmids for full-length human FGE with an N-terminal KDEL (SEQ ID NO:7) amino acid sequence (+KDEL) and CT tagged antibody at a ratio of 3:1 antibody:FGE DNA. The culture was harvested at 5-6 days post transfection, titer assessed by ELISA, and the protein was purified and conversion was measured by mass-spectrometry.
Expi 293F cells that were treated with or without 50 μM copper sulfate prior to transfection were transiently co-transfected with expression plasmids for various forms of human FGE (+KDEL, WT, myc-His) and CT tagged antibody at a ratio of 3:1 antibody:FGE DNA. The culture was harvested at 5 days post transfection, titer assessed by ELISA, the protein was purified and conversion was measured by mass-spectrometry.

[1] = test system: 14 amino acid peptide ALCTPSRGSLFTGR (SEQ ID NO:8); experiment: Discontinuous FGE activity assay on peptide substrate (RP-HPLC); type: biochemical
Experimental: [formula] where Et is the total enzyme in solution, and kcat and KM are the standard enzymatic parameters specified by the STRENDA commission. Units of enzyme specific activity are the katal, where 1 kat=1 mol·s^−1. Kinetic parameters were determined from nonlinear regression of [substrate] v. initial velocity using GraphPad prism.
The specific activity of FGE was measuring using a discontinuous enzymatic activity assay. The substrate for FGE was a 14 amino acid peptide containing the consensus sequence (H2N-[…]-COOH (SEQ ID NO:8)). The rate of reaction was determined by integrating the peak area at 215 nm of the starting material (Cys) and product (fGly) containing peptides on reversed-phase HPLC. The identity of product (and side product) peaks were determined by RP-HPLC MS/MS. Each aqueous reaction solution (60 μL) contained substrate peptide (100 μM), FGE (1 μM), DTT (1 mM), and buffer (25 mM triethanolamine, pH 9). A single time course consisted of 5 data points collected every 2 minutes. The reaction was initiated upon addition of FGE stock solution and vortexing for 3 s. Time points were quenched by diluting 10 μL of reaction mixture into 1 μL of 1 M HCl by hand with a micropipettor. After completion of the reaction, each time point was analyzed by RP-HPLC.
(§1) Substrate, product, and side products of the FGE substrate peptide […] (SEQ ID NO:8) were separated on RP-HPLC over 7 min with isocratic 18% MeCN in water containing 0.1% TFA. The integrated area of the fGly (2.1 min), Cys (3.3 min), βME-DS (3.6 min), and Cys-DS (6.2 min) forms of the substrate were used to calculate total area and each fraction thereof.
The specific activity of FGE was measured using a discontinuous enzymatic activity assay. The substrate for FGE was a 14 amino acid peptide containing the CXPXR consensus sequence ([…] (SEQ ID NO:8)). The rate of reaction was determined by integrating the peak areas at 215 nm of the substrate cysteine (Csub) and product (fGly) peptides on reversed-phase HPLC. The identities of product (and side product) peaks were determined by RP-HPLC MS/MS (see below). Each aqueous reaction solution (120 μL) contained Csub (100 μM), FGE (0.1-1 μM), DTT (1 mM), and buffer (25 mM TEAM, pH 9). A single time course included 5 data points collected at evenly spaced intervals. The reaction was initiated upon addition of FGE stock solution and vortexing for 3 s. The reaction vial was vortexed at 1,500 RPM and 25° C. in a thermomixer R (Eppendorf). Time points were hand quenched by adding 20 μL of reaction mixture to 2 μL of 1 M HCl using a micropipettor. After completion of the reaction, each time point was analyzed by RP-HPLC (see below).
as §1, with “integrated areas” for “integrated area”, “min), Csub” for “min), Cys”, “min), the Csub/βME disulfide (Csub-βME, 3.6” for “min), βME-DS (3.6”, “and substrate/substrate disulfide (Csub-Csub, 6.1” for “and Cys-DS (6.2”
Individual FGE reactions were initiated by rapidly mixing FGE into a premixed buffered solution of Csub and reducing agent. It was assumed that all buffered solutions contained oxygen at ˜270 μM at 25° C. (based upon Henry's law). Time points were chemically quenched by hand with HCl. […]. The identities of both the Cys- and fGly-containing peptides were confirmed by LC-MS/MS (FIG. 11). These assignments were then correlated with HPLC retention times (FIG. 14, panel a). The integrated peak areas of substrate and product were used to calculate the initial velocity of FGE (FIG. 14, panel b) using the method described by Boeker (Biochem. J., (1984), 223, 15; and Biochem. J., (1985), 226, 29).

[2] = other ion sources: iron sulfate 0.1 mM or 0.5 mM Day 3, MnCl2 50 uM or 10 uM Day 0, ZnCl2 50 uM Day 0
[3] = as purified from cell culture, not activated
[4] = nonlinear regression to Michaelis-Menten equation

## O=C1O[C@H]([C@@H](O)CO)C(=O)C1=O [DHAA, (L)-dehydroascorbic acid]
Sc-FGE
  effect of pretreatment on specific activity: did not change

## [Cl][Mn][Cl] [MnCl2]
Recombinant human FGE; [2]
  effect on conversion of the target polypeptide: did not effect a detectable or significant increase

## [Cl-].[Cl-].[Zn+2] [ZnCl2]
Recombinant human FGE; [2]
  effect on conversion of the target polypeptide: did not effect a detectable or significant increase

## O=S(=O)([O-])[O-].[Fe+2] [iron sulfate, iron(II) sulfate]
Recombinant human FGE
  effect on conversion of the target polypeptide: did not effect a detectable or significant increase

## CC(O)C(=O)O (centres unmarked) [lactate]
Recombinant human FGE; potential stimulators of lactate consumption, lactate or pyruvate 1.5 g/L with feeds
  effect on conversion efficiency of the FGE: did not increase conversion efficiency

B1: myc His: human FGE C-terminally tagged with myc-His (pRW529) (protein, UniProt Q8NBK3 34-374, looked up)
Formylglycine-generating …: SQEAGTGAGAGSLAGSCGCGTPQRPGAHGSSAAAHRYSREANAPGPVPGERQLAHSKMVPIPAGVFTMGTDDPQIKQDGEAPARRVTIDAFYMDAYEVSNTEFEKFVNSTGYLTEAEKFGDSFVFEGMLSEQVKTNIQQAVAAAPWWLPVKGANWRHPEGPDSTILHRPDHPVLHVSWNDAVAYCTWAGKRLPTEAEWEYSCRGGLHNRLFPWGNKLQPKGQHYANIWQGEFPVTNTGEDGFQGTAPVDAFPPNGYGLYNIVGNAWEWTSDWWTVHHSVEETLNPKGPPSGKDRVKKGGSYMCHRSYCYRYRCAARSQNTPDSSASNLGFRCAADRLPTMD
modifications: C-terminal myc-His tag
CT-1.1 tagged Her2; copper sulfate 50 μM at Day 0
  Conversion (%): 78% and 94%
[1]
  specific activity of FGE isolated from Cu^2+ treated cells vs untreated cells: significantly higher activity

B2: WT: WT form of human FGE, non-KDEL (protein, UniProt Q8NBK3 34-374, looked up)
Formylglycine-generating …: SQEAGTGAGAGSLAGSCGCGTPQRPGAHGSSAAAHRYSREANAPGPVPGERQLAHSKMVPIPAGVFTMGTDDPQIKQDGEAPARRVTIDAFYMDAYEVSNTEFEKFVNSTGYLTEAEKFGDSFVFEGMLSEQVKTNIQQAVAAAPWWLPVKGANWRHPEGPDSTILHRPDHPVLHVSWNDAVAYCTWAGKRLPTEAEWEYSCRGGLHNRLFPWGNKLQPKGQHYANIWQGEFPVTNTGEDGFQGTAPVDAFPPNGYGLYNIVGNAWEWTSDWWTVHHSVEETLNPKGPPSGKDRVKKGGSYMCHRSYCYRYRCAARSQNTPDSSASNLGFRCAADRLPTMD
CT-1.1 tagged Her2; copper sulfate 0 μM
  Conversion (%): 77%
CT-1.1 tagged Her2; copper sulfate 50 μM at Day 0
  Conversion (%): 86%

B3: Hs-FGE: full length wild-type human FGE containing the N-terminal extension and the core, UniProt Q8NBK3 (protein, UniProt Q8NBK3 1-374, looked up)
chain: MAAPALGLVCGRCPELGLVLLLLLLSLLCGAAGSQEAGTGAGAGSLAGSCGCGTPQRPGAHGSSAAAHRYSREANAPGPVPGERQLAHSKMVPIPAGVFTMGTDDPQIKQDGEAPARRVTIDAFYMDAYEVSNTEFEKFVNSTGYLTEAEKFGDSFVFEGMLSEQVKTNIQQAVAAAPWWLPVKGANWRHPEGPDSTILHRPDHPVLHVSWNDAVAYCTWAGKRLPTEAEWEYSCRGGLHNRLFPWGNKLQPKGQHYANIWQGEFPVTNTGEDGFQGTAPVDAFPPNGYGLYNIVGNAWEWTSDWWTVHHSVEETLNPKGPPSGKDRVKKGGSYMCHRSYCYRYRCAARSQNTPDSSASNLGFRCAADRLPTMD
modifications: full-length
notes: full length wild-type human FGE containing the N-terminal extension and the core, UniProt Q8NBK3
[1]; [3]
  specific activity: 850 pkat·mg^−1

B4: +KDEL: full-length human FGE with an N-terminal KDEL (SEQ ID NO:7) amino acid sequence (protein, UniProt Q8NBK3 1-374, looked up)
chain: MAAPALGLVCGRCPELGLVLLLLLLSLLCGAAGSQEAGTGAGAGSLAGSCGCGTPQRPGAHGSSAAAHRYSREANAPGPVPGERQLAHSKMVPIPAGVFTMGTDDPQIKQDGEAPARRVTIDAFYMDAYEVSNTEFEKFVNSTGYLTEAEKFGDSFVFEGMLSEQVKTNIQQAVAAAPWWLPVKGANWRHPEGPDSTILHRPDHPVLHVSWNDAVAYCTWAGKRLPTEAEWEYSCRGGLHNRLFPWGNKLQPKGQHYANIWQGEFPVTNTGEDGFQGTAPVDAFPPNGYGLYNIVGNAWEWTSDWWTVHHSVEETLNPKGPPSGKDRVKKGGSYMCHRSYCYRYRCAARSQNTPDSSASNLGFRCAADRLPTMD
modifications: full-length N-terminal KDEL
CT-1.1 tagged Her2; copper sulfate 0 μM
  Conversion (%): 72% and 47% and 78% and 62%
CT-1.1 tagged Her2; copper sulfate 50 μM at Day 0
  Conversion (%): 93% and 94% and 95% and 88%

B5: Sc-FGE: Streptomyces coelicolor formylglycine-generating enzyme, UniProt Q9F3C7, N-terminal hexahistidine tag, expressed in E. coli (protein)
chain: MAVAAPSPAAAAEPGPAARPRSTRGQVRLPGGEFAMGDAFGEGYPADGETPVHTVRLRPFHIDETAVTNARFAAFVKATGHVTDAERFGSSAVFHLVVAAPDADVLGSAAGAPWWINVRGAHWRRPEGARSDITGRPNHPVVHVSWNDATAYARWAGKRLPTEAEWEYAARGGLAGRRYAWGDELTPGGRWRCNIWQGRFPHVNTAEDGHLSTAPVKSYRPNGHGLWNTAGNVWEWCSDWFSPTYYAESPTVDPHGPGTGAARVLRGGSYLCHDSYCNRYRVAARSSNTPDSSSGNLGFRCANDADLTSGSAAE
modifications: left off: small tags and cut ends
notes: Streptomyces coelicolor formylglycine-generating enzyme, UniProt Q9F3C7, N-terminal hexahistidine tag, expressed in E. coli
[1]
  increase of specific activity on activation: more than an order of magnitude
  specific activity: 3579±215 pkat·mg^−1
[1]; [3]
  specific activity: 214 pkat·mg^−1 and 214±34 pkat·mg^−1
[1]; [4]
  Km: 96 µM
  kcat: 0.288 s⁻¹
